Tested on: MS2 coat protein
Experiment: apparent KD of MS2 coat protein; designed switch direction (-1 OFF switch, 1 ON switch): 1; higher = weaker reporter binding
Outline: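 Each step of the titration lasted 0.8–1.5 h at the lowest concentration and 10–20 min at the highest. The protein, SNAP-549-labelled MS2 coat protein, went from 0.7 or 1.5 nM doubling to 3 µM over RNA switches transcribed on Illumina chips by stalled E. coli RNA polymerase. Normalised cluster fluorescence was curve-fitted, and the per-design median over clusters is given as apparent KD.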

[1] = input ligand: microRNA oligo, concentration not stated
[2] = Eterna round: R95, input ligand: FMN 200 uM
[3] = Eterna round: R95, input ligand: microRNA oligo, concentration not stated
[4] = Eterna round: R95, input ligand: none

| Sequence | apparent KD of MS2 coat protein (input ligand: FMN 200 uM) [nM] | apparent KD of MS2 coat protein [1] [nM] | apparent KD of MS2 coat protein (input ligand: none) [nM] | apparent KD of MS2 coat protein [2] [nM] | apparent KD of MS2 coat protein [3] [nM] | apparent KD of MS2 coat protein [4] [nM] |
| --- | --- | --- | --- | --- | --- | --- |
| AAAAGAAACAUGUACCUGAGUACAUGAAAACAUGAGGAUCACCCAUGUAACAAGCUGGGUGCUCGUCUUAUAAGAAA [JL pocket 1] (Eterna round: R96, puzzle: Sensor for hsa-mir-208a) | 137 | 22.3 | 77.7 |  |  |  |
| AAAAGAAACAUGUACCUGAGUACAUGAAAACAUGAGGAUCACCCAUGUAACAAGUUGGGUGCUUGUCUUAUAAGAAA [JL pocket 4] (Eterna round: R96, puzzle: Sensor for hsa-mir-208a) | 710 | 66.7 | 822 |  |  |  |
| AAAAGACAUGAGGAUCACCCAUGUAACGGUCGUCAAGGAUAUGCAUAGGUCCAUUGACCAGCAGAAGGUGAUACCU [Xeanlarace] (puzzle: Same State 1) |  |  |  | 400 | 56.6 | 38.3 |
| AAAAUACAUGAGGAUCACCCAUGUAGAAACUACACAGGAUAUCGGACGGCUAUAACCGAACGAGAAGGGUGAACCC [Onorvea] (puzzle: Same State 1) |  |  |  | 260 | 354 | 362 |
| AAAAUGAGUAUAUGAAAACAAGCUUUUUAACAUGAGGAUCACCCAUGUACUCGUCUUAUAAGCAGUCGAAAGACUGC [hsa-mir-208a sensor: 77] (Eterna round: R96, puzzle: Sensor for hsa-mir-208a) | 94.8 | 17.2 | 96.6 |  |  |  |
| AAAAUGGUAUGUUACAUGAGGAUCACCCAUGUACUCUAAUCUGAGGAUAUGGGAAUGUAGAAGAACCAGAAGGCAGACAUCCAA [AK SSNG3-V2-22.1] (Eterna round: R96, puzzle: Same State NG 3) | 149 | 70.2 | 86 |  |  |  |
| AAAAUGUGAUGUUACAUGAGGAUCACCCAUGUAGUGACAACUAAGGAUAUCUGAAAAAAAGGAGAGGAGAAGGUAGGAUCACAA [AK SSNG3-V2-16.1] (Eterna round: R96, puzzle: Same State NG 3) | 25.7 | 26.4 | 33.2 |  |  |  |
| AAACACAGCAUAACGCUGUGACAUGAGGAUCACCCAUGUACACAGGAUAUCAUGGCAUAACGCCAUGAGAAGGGUGAUCAAGAC [Arxeerte] (Eterna round: R96, puzzle: Same State NG 3) | 20.5 | 2.71 | 55.3 |  |  |  |
| AAACGGCCGAACGGAGGGCCACAUGAGGAUCACCCAUGUACAUAGGAUAUCACGCCAACGAAGCGUGAGAAGGGUGAUUAAAAC [Anriusxees] (Eterna round: R96, puzzle: Same State NG 3) | 341 | 4.64 | 104 |  |  |  |
| AAAGAAAACAUAGGAUAUGUAACAUGAGGAUCACCCAUGUAUACCUCGUAAGAGAUGAUGGAUGGACAGAAGGAUGAUCUCAGG [Default title] (Eterna round: R96, puzzle: Same State NG 2) |  | 111 |  |  |  |  |
| AAAGGAUGAUGUUACAUGAGGAUCACCCAUGUAGUGAUAACUAAGGAUAUCUGUUAAACAAGUUAAGAGAAGGUAGGAUCAUUA [AK SSNG3-V2-8] (Eterna round: R96, puzzle: Same State NG 3) | 42.8 | 35.6 | 60.8 |  |  |  |
| AAAGUACAUGAGGAUCACCCAUGUCCAAAGAAGUAAGGAUAUACGGAAAGAAAAGAAAAUGUAGAAGGUACAAGAA [Same State 1 #3] (puzzle: Same State 1) |  |  |  | 33 | 65.8 | 57.6 |
| AAAUAAAACACAGGAUAUGCAGUCAAAACGACGGCAGAAGGGUGAGACAUGAGGAUCACCCAUGUACACAUCCCACGGAUGUGC [Anonised] (Eterna round: R96, puzzle: Same State NG 1) | 1060 | 546 | 1060 |  |  |  |
| AAAUUACUCCGAGGAUAUGCAUGGCUUUGUGCCGCAGAAGGUGGAUCGACGGACAUGAGGAUCACCCAUGUACACUGUCCUAUA [Gerite] (Eterna round: R96, puzzle: Same State NG 1) | 26.4 | 34.7 | 46.9 |  |  |  |
| AACAAUCUAUCUGAGGAUAUCAUGAAAUAAACAUGAGGAUCACCCAUGUGCAGGAAAACUGCAUAUGAGAAGGCAGAUAGAUUGU [salish99_ss2_r3_058] (puzzle: Same State 2) |  |  |  | 57.7 | 1020 | 1580 |
| AACAAUCUAUCUGAGGAUAUCAUGAAAUAAACAUGAGGAUCACCCAUGUGCAGGAAAACUGCAUAUGAGAAGGCAGAUAGAUUUA [salish99_ss2_r3_057] (puzzle: Same State 2) |  |  |  | 43.8 | 638 | 1000 |
| AACAAUCUAUCUGAGGAUAUCAUGAAAUAAACAUGAGGAUCACCCAUGUGCAGUAAAACUGCAUAUGAGAAGGCAGAUAGAUUGA [salish99_ss2_r3_039] (puzzle: Same State 2) |  |  |  | 93.3 | 1850 | 1820 |
